Like-named read-outs stand apart in the source and are kept apart here.

Experiment [1] has as its target GST-importin α5 (1-538) Tyr476Gly (human) (UniProt P52294). Nature of the experiment: SPR. For orientation: SPR reads the build-up and loss of mass on a sensor chip optically.
Experiment [2] addresses GST-importin α5 (res. 1-538) (human) (UniProt P52294). The experiment in a line: SPR.
The target in experiment [3] is importin α5, GST-tag removed (human) (UniProt P52294). The experiment in a line: AUC.
In experiment [4] the target is GST-importin α5 (1-538) Tyr476Gly (human) (UniProt P52294). Nature of the experiment: SPR. The source holds these as a separate data set.
Experiment [5] addresses GST-importin α5 (res. 1-538) (human) (UniProt P52294). The experiment in a line: SPR. The source holds these as a separate data set.
Experiment [6] concerns the target GST-importin α1/α5 (res. 1-446 of α1/449-538 of α5) (human) (UniProt P52292). The experiment in a line: SPR.
The target in experiment [7] is full-length importin-α5 with C-terminal Strep-tag (human) (UniProt P52294). Nature of the experiment: SEC. (SEC sorts molecules by how far they enter the pores of the column.)
A further experiment concerns the target STAT1 (UniProt P42224). The experiment in a line: sedimentation velocity analytical ultracentrifugation. The note with it: reference: uSTAT1; sites Y701.

Chain of GST-importin α5 (1-538) Tyr476Gly (human) (P52294 whole entry Y476G): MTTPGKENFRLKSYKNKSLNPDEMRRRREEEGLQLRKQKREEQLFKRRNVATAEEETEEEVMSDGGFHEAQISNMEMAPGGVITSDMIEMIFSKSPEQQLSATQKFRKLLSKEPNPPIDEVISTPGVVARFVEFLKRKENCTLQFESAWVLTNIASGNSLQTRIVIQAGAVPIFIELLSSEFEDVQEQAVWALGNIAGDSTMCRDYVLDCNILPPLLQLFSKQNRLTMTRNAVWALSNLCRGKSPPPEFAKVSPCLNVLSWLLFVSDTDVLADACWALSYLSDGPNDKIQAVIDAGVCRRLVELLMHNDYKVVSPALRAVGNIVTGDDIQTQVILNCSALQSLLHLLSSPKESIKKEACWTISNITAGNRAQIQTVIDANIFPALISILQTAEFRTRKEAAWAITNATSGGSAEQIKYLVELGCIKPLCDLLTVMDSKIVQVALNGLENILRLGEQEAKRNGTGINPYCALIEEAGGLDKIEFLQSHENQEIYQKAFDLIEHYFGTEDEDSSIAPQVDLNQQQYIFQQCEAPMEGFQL
Chain of GST-importin α5 (res. 1-538) (human) (P52294 whole entry): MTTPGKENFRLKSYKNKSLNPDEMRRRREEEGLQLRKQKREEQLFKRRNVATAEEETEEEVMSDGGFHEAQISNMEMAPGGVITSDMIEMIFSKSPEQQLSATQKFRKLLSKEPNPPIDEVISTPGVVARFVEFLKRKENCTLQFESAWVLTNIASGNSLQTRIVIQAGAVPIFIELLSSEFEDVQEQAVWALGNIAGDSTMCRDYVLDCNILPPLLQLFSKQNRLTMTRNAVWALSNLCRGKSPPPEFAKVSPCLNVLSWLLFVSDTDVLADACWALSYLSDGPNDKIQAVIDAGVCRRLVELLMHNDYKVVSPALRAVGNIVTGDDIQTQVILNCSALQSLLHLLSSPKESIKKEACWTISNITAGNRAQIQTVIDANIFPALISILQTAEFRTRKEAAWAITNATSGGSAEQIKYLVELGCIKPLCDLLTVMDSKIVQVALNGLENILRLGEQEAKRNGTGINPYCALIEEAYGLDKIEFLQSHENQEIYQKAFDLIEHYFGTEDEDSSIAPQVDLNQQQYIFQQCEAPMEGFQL
Chain of phosphorylated-Tyr701 STAT1 (1-712), N-terminal 6-histidine tag (P42224 1-712): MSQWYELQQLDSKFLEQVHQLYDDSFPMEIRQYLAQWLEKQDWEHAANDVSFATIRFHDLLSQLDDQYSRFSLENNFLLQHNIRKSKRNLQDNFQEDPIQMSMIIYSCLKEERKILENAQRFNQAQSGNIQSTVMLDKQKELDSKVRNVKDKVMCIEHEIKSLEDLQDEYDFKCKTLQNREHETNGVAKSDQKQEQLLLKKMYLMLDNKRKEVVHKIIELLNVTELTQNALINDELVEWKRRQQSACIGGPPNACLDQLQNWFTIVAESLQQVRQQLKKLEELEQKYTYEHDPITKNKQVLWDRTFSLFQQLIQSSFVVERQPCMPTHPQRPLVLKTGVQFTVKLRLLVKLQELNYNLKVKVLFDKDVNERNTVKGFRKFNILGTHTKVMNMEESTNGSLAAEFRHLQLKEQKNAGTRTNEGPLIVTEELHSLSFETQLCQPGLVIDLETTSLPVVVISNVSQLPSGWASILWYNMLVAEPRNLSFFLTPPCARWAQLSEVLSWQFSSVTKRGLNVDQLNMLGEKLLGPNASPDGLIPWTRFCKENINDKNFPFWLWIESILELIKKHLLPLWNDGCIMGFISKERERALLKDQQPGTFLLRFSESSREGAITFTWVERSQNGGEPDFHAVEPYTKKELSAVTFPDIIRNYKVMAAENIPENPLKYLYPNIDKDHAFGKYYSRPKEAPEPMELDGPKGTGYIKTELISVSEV
Chain of importin α5, GST-tag removed (human) (P52294 whole entry): as the sequence (P52294 whole entry) above
Chain of full-length importin-α5 with C-terminal Strep-tag (human) (P52294 whole entry): as above
Chain of STAT1 (UniProt P42224) (P42224 whole entry): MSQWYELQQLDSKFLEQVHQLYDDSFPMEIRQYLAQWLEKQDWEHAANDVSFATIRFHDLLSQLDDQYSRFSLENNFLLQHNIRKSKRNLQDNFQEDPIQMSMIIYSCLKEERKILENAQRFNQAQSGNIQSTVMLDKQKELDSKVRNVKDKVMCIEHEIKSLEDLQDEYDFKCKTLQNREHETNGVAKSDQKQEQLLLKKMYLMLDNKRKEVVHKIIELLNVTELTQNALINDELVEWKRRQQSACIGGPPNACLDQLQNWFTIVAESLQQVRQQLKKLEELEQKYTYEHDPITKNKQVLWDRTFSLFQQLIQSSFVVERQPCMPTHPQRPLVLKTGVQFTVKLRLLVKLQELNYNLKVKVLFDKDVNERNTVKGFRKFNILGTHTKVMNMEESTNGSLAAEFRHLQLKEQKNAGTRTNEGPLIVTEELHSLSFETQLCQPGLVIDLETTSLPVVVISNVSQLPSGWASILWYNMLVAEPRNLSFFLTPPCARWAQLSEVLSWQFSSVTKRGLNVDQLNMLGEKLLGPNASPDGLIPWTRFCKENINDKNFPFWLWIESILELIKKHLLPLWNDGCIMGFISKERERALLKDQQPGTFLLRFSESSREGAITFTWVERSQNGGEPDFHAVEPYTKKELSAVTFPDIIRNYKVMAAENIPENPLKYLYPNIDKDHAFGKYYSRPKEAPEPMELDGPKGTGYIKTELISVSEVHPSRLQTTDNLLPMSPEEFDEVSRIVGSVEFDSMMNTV
Chain of STAT1 (from UniProt P42224) pSTAT1 (P42224 whole entry, change not shown): as the sequence (P42224 whole entry) above

Broadly, the koff is the rate constant with which the complex falls apart. Low values mean slow dissociation, high ones fast dissociation. As usually defined, the Kd is the equilibrium constant for the complex coming apart. Lower therefore signals higher affinity. A word on the kon: it is the second-order rate constant of association. A lower kon goes with slow association. As for “phosphorylated-Tyr701 STAT1 (1-712), N-terminal 6-histidine tag (from UniProt P42224-2 1-712) (natural protein)”, the koff in experiment [1] is 289 s⁻¹; in experiment [2], 0.0183 s⁻¹; in experiment [4], 0.289 s⁻¹; in experiment [5], 0.0189 s⁻¹. Also, in experiment [3], the stoichiometry N (pSTAT1 dimer per importin α5 molecule) was 1. Also, the dissociation constant Kd in experiment [4] is 4300 nM; in experiment [5], 191 nM; in experiment [6], 542 nM. For the same substance, the kon in experiment [4] was found to be 66600 M⁻¹ s⁻¹; in experiment [5], 98800 M⁻¹ s⁻¹.
Substance “Strep-tagged phosphorylated-Tyr701 STAT1 (from UniProt P42224 1-750) (natural protein)” came in with a stoichiometry N (pSTAT1 dimer per importin α5 molecule) in experiment [7] of 1.
In the case of STAT1 (from UniProt P42224) pSTAT1, the “other: molecular weight” value in the experiment with STAT1 is listed as “same; reference ~180”.

The values above are taken from PMC2930068.
